Test results published in publication PMC2874908.
Like-named read-outs stand apart in the source and are kept apart here.

What was measured:
[1] = target: β-catenin (endogenous, CHO cells) (Chinese hamster (endogenous in CHO)) (UniProt G3H996); test: co-IP
[2] = target: β-catenin (endogenous, CHO cells) (Chinese hamster (endogenous in CHO)) (UniProt G3H996); test: co-IP; remark: listed apart in the source

fold change of dynein with β-catenin, V13 cells against E-cadherin cells [1]: 2 to 2.5 fold | fold change of dynein with β-catenin, V13 cells against E-cadherin cells [2]: 3 fold
Substance: dynein (microtubule motor protein; endogenous, CHO cells) (complex)
